Laboratory results published in publication PMC6555816, “Tau local structure shields an amyloid-forming motif and controls aggregation propensity” (Nature Communications, 2019).

B1: 306VQIVYK311 hexapeptide (peptide)
peptide: Ac-VQIVYK-NH2
notes: also called amyloid motif; source: synthetic peptide (Genscript)

Target: the molecule itself
Test: ThT fluorescence aggregation assay; spontaneous self-assembly of disaggregated synthetic peptides, 200 µM, PBS, 25 µM ThT, room temperature, no inducer; the R2R3 peptides of Fig. 4 also looked at by TEM

| Protein | binding result |
| --- | --- |
| Ac-DNIKHVSGGGSVQIVYK-NH2 (peptide, UniProt P10636-8 295-311, looked up, source: synthetic peptide (Genscript)) [R2R3-P301S peptide fragment] | binds |
| B1 | binds |
| Ac-DIKHVPGGGSVQIVYK-NH2 (peptide, UniProt P10636-8 295-311, looked up, source: synthetic peptide (Genscript)) [R2R3-N296Δ peptide fragment] | binds |
| Ac-DNIKHVLGGGSVQIVYK-NH2 (peptide, UniProt P10636-8 295-311, looked up, source: synthetic peptide (Genscript)) [R2R3-P301L peptide fragment] | binds |
| Ac-DNIKHVPGVGSVQIVYK-NH2 (peptide, UniProt P10636-8 295-311, looked up, source: synthetic peptide (Genscript)) [R2R3-G303V peptide fragment] | binds |
| Ac-DNIKHIPGGGSVQIVYK-NH2 (peptide, UniProt P10636-8 295-311, looked up, source: synthetic peptide (Genscript)) [R2R3-V300I peptide fragment] | binds |
| Ac-DNIKHVPGGGNVQIVYK-NH2 (peptide, UniProt P10636-8 295-311, looked up, source: synthetic peptide (Genscript)) [R2R3-S305N peptide fragment] | binds |
